One may read the Kd as the concentration at which binding is half-saturated. Lower therefore signals tighter binding.

The values below come from patent US20210324099A1 (Chugai, published 2021).

For one test, the target named is human FcRn (human, UniProt P55899 24-290; P61769 21-119, limits assumed). Description: SPR 25C pH 6.0, steady state.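 Also: antibody captured on chip via anti-human Fab-lambda ligand, human FcRn injected as analyte in 50 mM phosphate buffer with 150 mM NaCl and P20.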
The target of test [1] is T1, hFcgRIa (human, UniProt P12314 16-292).
T1 construct: extracellular domain; also called human FcγRIa; FcγRI
Description: SPR 25C; relative to A375-G1T3/B167-Lamlib.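 Also: SPR with antibody captured on an anti-human Fab-lambda chip, human FcγR analyte at 8 nM for FcγRIa or 1000 nM for the others, pH 7.4, FcγR RU per captured antibody unit.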

For test [2], the target named is T2, hFcgRIIaH (human, UniProt P12318 34-217).
T2 construct: extracellular domain; also called human FcγRIIa type H (H131)
T2 sequence (looked up): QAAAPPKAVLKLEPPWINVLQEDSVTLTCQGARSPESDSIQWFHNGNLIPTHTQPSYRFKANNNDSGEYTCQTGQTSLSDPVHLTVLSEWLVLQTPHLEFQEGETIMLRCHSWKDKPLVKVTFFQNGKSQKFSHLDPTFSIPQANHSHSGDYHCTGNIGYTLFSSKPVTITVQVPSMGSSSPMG
The test is described as follows: SPR 25C; relative to A375-G1T3/B167-Lamlib.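 Also: SPR with antibody captured on an anti-human Fab-lambda chip, human FcγR analyte at 8 nM for FcγRIa or 1000 nM for the others, pH 7.4, FcγR RU per captured antibody unit.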

For test [3], the target named is T3, hFcgRIIIaV (human, UniProt P08637 17-208).
T3 construct: extracellular domain; also called human FcγRIIIa allotype V158
Description: SPR 25C; relative to A375-G1T3/B167-Lamlib.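 Also: SPR with antibody captured on an anti-human Fab-lambda chip, human FcγR analyte at 8 nM for FcγRIa or 1000 nM for the others, pH 7.4, FcγR RU per captured antibody unit.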

Test [4] has as its target T4, hFcgRIIIaF (human, UniProt P08637 17-208).
T4 construct: extracellular domain; also called human FcγRIIIa allotype F158
Description: SPR 25C; relative to A375-G1T3/B167-Lamlib.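 Also: SPR with antibody captured on an anti-human Fab-lambda chip, human FcγR analyte at 8 nM for FcγRIa or 1000 nM for the others, pH 7.4, FcγR RU per captured antibody unit.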

In test [5] the target is T5, hFcgRIIb (human, UniProt P31994 43-217).
T5 construct: extracellular domain; also called human FcγRIIb
T5 sequence (looked up): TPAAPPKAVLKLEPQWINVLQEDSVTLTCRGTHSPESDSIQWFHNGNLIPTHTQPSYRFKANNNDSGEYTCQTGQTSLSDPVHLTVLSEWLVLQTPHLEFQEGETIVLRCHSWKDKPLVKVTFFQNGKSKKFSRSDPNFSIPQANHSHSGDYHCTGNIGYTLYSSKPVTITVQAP
Description: SPR 25C; relative to A375-G1T3/B167-Lamlib.

Test [6] addresses T6, hFcgRIIaR (human, UniProt P12318 34-217).
T6 construct: extracellular domain; also called human FcγRIIa type R (R131)
T6 sequence (looked up): T2 sequence (looked up) with H134R
The test is described as follows: SPR 25C; relative to A375-G1T3/B167-Lamlib.

The target of test [7] is T1, hFcgRIa. The test is described as follows: SPR 25C.
Description: (§1) Biacore T200 (GE Healthcare) was used to evaluate the binding activity to the respective human Fcγ receptor (hereafter referred to as FcγR). Measurement was performed at 25° C. using 50 mM phosphate, 150 mM NaCl, 0.05 w/v %-P20, pH 7.4 as buffer. About 1000 RU of antibody was captured using a sensor chip immobilized with CaptureSelect™ Human Fab-lambda Kinetics Biotin Conjugate (Thermo Fisher Scientific) as a molecule for ligand capturing. Human FcγR was diluted to 8 nM for FcγRIa and 1000 nM for other FcγR in the measurement buffer, and it was interacted to the captured antibody. The binding activity of each antibody to FcγR was assessed by calculating the binding amount of FcγR (RU) per unit amount of antibody using Biacore T200 Evaluation Software 2.0.
The target of test [8] is T2, hFcgRIIaH. The test is described as follows: SPR 25C.
Description: as §1
The target in test [9] is T3, hFcgRIIIaV. The test is described as follows: SPR 25C.
Description: as §1
Test [10] concerns the target T4, hFcgRIIIaF. The test is described as follows: SPR 25C.
Description: as §1
Test [11] has as its target T5, hFcgRIIb. The test is described as follows: SPR 25C.
Description: as §1
Test [12] has as its target T6, hFcgRIIaR. Description: SPR 25C.
Description: as §1

Substitutions are numbered along the chain they refer to.
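For binding per 1RU of antibody in this document: biacore SPR with antibody captured on an anti-human Fab lambda chip, human FcγR injected at 1000 nM (FcγRIa at 8 nM) in pH 7.4 phosphate buffer.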

Sequence of human FcRn (P55899 24-290 limits assumed, chain 1 of 2): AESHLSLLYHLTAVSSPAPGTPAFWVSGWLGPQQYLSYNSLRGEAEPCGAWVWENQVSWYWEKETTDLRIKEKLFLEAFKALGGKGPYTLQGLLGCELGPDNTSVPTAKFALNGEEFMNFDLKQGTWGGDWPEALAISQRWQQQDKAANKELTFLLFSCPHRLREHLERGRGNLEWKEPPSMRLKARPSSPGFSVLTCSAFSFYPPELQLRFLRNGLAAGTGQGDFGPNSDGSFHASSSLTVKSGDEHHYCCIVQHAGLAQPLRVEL
Sequence of human FcRn (P61769 21-119 limits assumed, chain 2 of 2): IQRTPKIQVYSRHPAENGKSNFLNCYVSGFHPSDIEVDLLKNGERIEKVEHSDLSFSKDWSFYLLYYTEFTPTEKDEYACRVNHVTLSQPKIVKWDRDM
T4 sequence (P08637 17-208): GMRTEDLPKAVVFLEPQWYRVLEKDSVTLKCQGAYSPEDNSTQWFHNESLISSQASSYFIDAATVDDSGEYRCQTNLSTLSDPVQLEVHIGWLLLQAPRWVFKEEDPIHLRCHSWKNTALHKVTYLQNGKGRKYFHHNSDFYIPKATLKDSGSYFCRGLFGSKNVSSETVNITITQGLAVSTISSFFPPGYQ
T1 sequence (P12314 16-292): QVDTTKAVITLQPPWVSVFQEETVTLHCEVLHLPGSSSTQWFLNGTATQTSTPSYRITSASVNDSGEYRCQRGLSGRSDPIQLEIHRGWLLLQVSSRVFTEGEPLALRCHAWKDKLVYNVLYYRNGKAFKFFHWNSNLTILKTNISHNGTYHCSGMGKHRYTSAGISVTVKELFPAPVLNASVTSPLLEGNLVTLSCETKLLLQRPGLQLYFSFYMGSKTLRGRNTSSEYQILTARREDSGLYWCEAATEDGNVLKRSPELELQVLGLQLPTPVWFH
T3 sequence (P08637 17-208 F176V): as the sequence (P08637 17-208) above, with F160V counted along it
Description for human FcRn: Biacore T200 (GE Healthcare) was used to assess the binding activity to human FcRn. Measurement was performed at 25° C. using 50 mM phosphate, 150 mM NaCl, 0.05 w/v %-P20, pH 6.0 as buffer. […] About 400 RU of antibody was captured using a sensor chip immobilized with CaptureSelect™ Human Fab-lambda Kinetics Biotin Conjugate (Thermo Fisher Scientific) as a molecule for ligand capturing, followed by the binding of human FcRn diluted in measuring buffer. The activity of the respective antibodies to bind FcRn was assessed by calculating KD (mol/L) by the steady-state model using Biacore T200 Evaluation Software 2.0.

B1: A375-SCF040/B167-Lamlib (antibody, human IgG1, lambda)
heavy: EVQLVESGGGLVKPGGSLRLSCAASGFTFSTFTMNWVRQAPGKGLEWVSSISSKSTYIEYADSFKVRFTISRDNAKNSLYLQMNSLRAEDTAVYYCARYGAKNFLNWVFDYWGQGTLVTVSSASTKGPSVFPLAPSSKSTSGGTAALGCLVKDYFPEPVTVSWNSGALTSGVHTFPAVLQSSGLYSLSSVVTVPSSSLGTQTYICNVNHKPSNTKVDKKVEPKSCDKTHTCPPCPAPELWNGPSVFLFPPKPKDTLMISRTPEVTCVVVDVSDEDPEVKFNWYVDGVEVHNAKTKPREELYNSTYRVVSVLTVLHQDWLNGKEYKCKVSNTALPKPIEKTISKAKGQPREPQVYTLPPSREEMTKNQVSLTCLVKGFYPSDIAVEWESNGQPENNYKTTPPVLDSDGSFFLYSKLTVKKSRWQQGNVFSCSVMHEALHNHYTQKSLSLSP
light: QSALTQPPSASGSPGQTVTISCTGTRYDVGYYEYVSWYQQHPGKAPKLMIYETSKRLSGVPDRFSGSKSGNTASLTVSGLQAEDEADYYCSSYRYEHQVSFGGGTKLTVLGQPKAAPSVTLFPPSSEELQANKATLVCLISDFYPGAVTVAWKADSSPVKAGVETTTPSKQSNNKYAASSYLSLTPEQWKSHRSYSCQVTHEGSTVEKTVAPTECS
notes: copies: 2 + 2
The molecule B1 showed a Kd with human FcRn of 1460 nM. The relative binding amount came out at 0.02 in the test with hFcgRIa [1]; 0.8 with hFcgRIIaH [2]; 0.02 with hFcgRIIIaV [3]; 0.05 in the test with hFcgRIIIaF [4]; 4.24 with hFcgRIIb [5]; 0.96 with hFcgRIIaR [6]. In addition, the “binding per 1RU of antibody” value was determined as 0.0016 RU with hFcgRIa [7]; 0.0454 RU in the test with hFcgRIIaH [8]; 0.0013 RU with hFcgRIIIaV [9]; 0.001 RU with hFcgRIIIaF [10]; 0.0465 RU in the test with hFcgRIIb [11]; 0.0446 RU with hFcgRIIaR [12].

B2: A375-SCF056a/B167-Lamlib (antibody, human IgG1, lambda)
heavy: B1 heavy with K219R, W240L, L300Q, Q316R, T331K, K418D
light: B1 light
notes: copies: 2 + 2
On to B2, for which binding in the test with human FcRn was characterised by a dissociation constant (Kd) of 956 nM. Further, the relative binding amount stood at 0.49 with hFcgRIa [1]; 0.93 with hFcgRIIaH [2]; 0.03 with hFcgRIIIaV [3]; 0.05 in the test with hFcgRIIIaF [4]; 3.64 in the test with hFcgRIIb [5]; 0.71 in the test with hFcgRIIaR [6]. The “binding per 1RU of antibody” value with hFcgRIa [7] turned out to be 0.0395 RU; with hFcgRIIaH [8] it was 0.0529 RU; in the test with hFcgRIIIaV [9], 0.0023 RU; in the test with hFcgRIIIaF [10] it was 0.0011 RU; with hFcgRIIb [11], 0.0399 RU; in the test with hFcgRIIaR [12] it was 0.0331 RU.

B3: A375-SCF041a/B167-Lamlib (antibody, human IgG1, lambda)
heavy: B1 heavy with K219R, W240L, L300Q, T331K, P348R, K418D
light: B1 light
Molecule B3 returned a Kd in the test with human FcRn of 1100 nM. In addition, the relative binding amount with hFcgRIa [1] is 0.55; with hFcgRIIaH [2], 1.01; in the test with hFcgRIIIaV [3], 0.03; in the test with hFcgRIIIaF [4], 0.04; with hFcgRIIb [5], 3.95; with hFcgRIIaR [6], 0.81. Besides, the “binding per 1RU of antibody” value with hFcgRIa [7] was found to be 0.0446 RU; with hFcgRIIaH [8] it was 0.0571 RU; in the test with hFcgRIIIaV [9], 0.0022 RU; with hFcgRIIIaF [10], 0.0009 RU; in the test with hFcgRIIb [11] it was 0.0433 RU; in the test with hFcgRIIaR [12], 0.0376 RU.

B4: A375-SCF043a/B167-Lamlib (antibody, human IgG1, lambda)
heavy: B1 heavy with K219R, W240L, L300Q, T331K, P348R
light: B1 light
In the test with human FcRn, B4 registered a Kd of 1180 nM. Moreover, the relative binding amount in the test with hFcgRIa [1] is 0.53; with hFcgRIIaH [2], 0.97; in the test with hFcgRIIIaV [3] it was 0.04; with hFcgRIIIaF [4] it was 0.05; in the test with hFcgRIIb [5], 3.82; in the test with hFcgRIIaR [6], 0.78. Further, the “binding per 1RU of antibody” value with hFcgRIa [7] worked out at 0.0429 RU; with hFcgRIIaH [8] it was 0.0552 RU; in the test with hFcgRIIIaV [9], 0.0025 RU; in the test with hFcgRIIIaF [10], 0.0011 RU; in the test with hFcgRIIb [11], 0.0419 RU; with hFcgRIIaR [12] it was 0.0361 RU.

B5: A375-SCF042a/B167-Lamlib (antibody, human IgG1, lambda)
heavy: B1 heavy with K219R, W240L, L300Q, T331K
light: B1 light
notes: copies: 2 + 2
Regarding B5, the Kd with human FcRn was 1490 nM. The relative binding amount with hFcgRIa [1] turned out to be 0.49; in the test with hFcgRIIaH [2] it was 0.92; with hFcgRIIIaV [3], 0.02; with hFcgRIIIaF [4] it was 0.01; with hFcgRIIb [5], 3.59; with hFcgRIIaR [6], 0.71. Besides, the “binding per 1RU of antibody” value with hFcgRIa [7] is 0.0396 RU; in the test with hFcgRIIaH [8], 0.0522 RU; with hFcgRIIIaV [9], 0.0014 RU; with hFcgRIIIaF [10], 0.0003 RU; with hFcgRIIb [11] it was 0.0393 RU; with hFcgRIIaR [12] it was 0.0327 RU.

B6: A375-SCF056aPh/B167-Lamlib (antibody, human IgG1, lambda)
heavy: B1 heavy with K219R, L300Q, Q316R, T331K, K418D
light: B1 light
notes: copies: 2 + 2
For B6, the affinity in the test with human FcRn, expressed as Kd, was 1000 nM. For the same molecule, the relative binding amount was found to be 0.02 in the test with hFcgRIa [1]; 0.55 with hFcgRIIaH [2]; 0.01 with hFcgRIIIaV [3]; 0.05 with hFcgRIIIaF [4]; 2.67 with hFcgRIIb [5]; 0.64 with hFcgRIIaR [6]. The “binding per 1RU of antibody” value in the test with hFcgRIa [7] amounted to 0.0019 RU; with hFcgRIIaH [8], 0.0314 RU; in the test with hFcgRIIIaV [9] it was 0.001 RU; with hFcgRIIIaF [10] it was 0.001 RU; in the test with hFcgRIIb [11], 0.0292 RU; with hFcgRIIaR [12], 0.0299 RU.

B7: A375-SCF041aPh/B167-Lamlib (antibody, human IgG1, lambda)
heavy: B1 heavy with K219R, L300Q, T331K, P348R, K418D
light: B1 light
B7 registered a Kd with human FcRn of 1130 nM. Moreover, the relative binding amount worked out at 0.02 with hFcgRIa [1]; 0.65 in the test with hFcgRIIaH [2]; 0.01 with hFcgRIIIaV [3]; 0.03 with hFcgRIIIaF [4]; 3.2 with hFcgRIIb [5]; 0.8 with hFcgRIIaR [6]. Further, the “binding per 1RU of antibody” value in the test with hFcgRIa [7] is 0.0013 RU; with hFcgRIIaH [8] it was 0.0371 RU; with hFcgRIIIaV [9], 0.0005 RU; in the test with hFcgRIIIaF [10], 0.0007 RU; in the test with hFcgRIIb [11], 0.035 RU; in the test with hFcgRIIaR [12], 0.0371 RU.

B8: A375-SCF043aPh/B167-Lamlib (antibody, human IgG1, lambda)
heavy: B1 heavy with K219R, L300Q, T331K, P348R
light: B1 light
In the test with human FcRn, B8 came in with an equilibrium dissociation constant (Kd) of 1210 nM. Also, the relative binding amount with hFcgRIa [1] is 0.01; with hFcgRIIaH [2], 0.62; with hFcgRIIIaV [3], 0; with hFcgRIIIaF [4] it was 0; with hFcgRIIb [5] it was 3.1; with hFcgRIIaR [6], 0.75. For the same molecule, the “binding per 1RU of antibody” value with hFcgRIa [7] was determined as 0.0011 RU; with hFcgRIIaH [8] it was 0.0349 RU; in the test with hFcgRIIIaV [9] it was 0.0001 RU; with hFcgRIIIaF [10], 0.0001 RU; in the test with hFcgRIIb [11], 0.0339 RU; with hFcgRIIaR [12] it was 0.0349 RU.

B9: A375-SCF057a/B167-Lamlib (antibody, human IgG1, lambda)
heavy: B1 heavy with K219R, W240L, L300Q, Q316R, T331K, P348R, K418D
light: B1 light
Molecule B9 showed a Kd with human FcRn of 928 nM. Further, the relative binding amount was determined as 0.5 with hFcgRIa [1]; 0.93 with hFcgRIIaH [2]; 0.04 with hFcgRIIIaV [3]; 0.06 in the test with hFcgRIIIaF [4]; 3.76 in the test with hFcgRIIb [5]; 0.79 in the test with hFcgRIIaR [6]. Besides, the “binding per 1RU of antibody” value with hFcgRIa [7] was determined as 0.0405 RU; in the test with hFcgRIIaH [8] it was 0.0525 RU; in the test with hFcgRIIIaV [9], 0.0025 RU; with hFcgRIIIaF [10], 0.0013 RU; in the test with hFcgRIIb [11] it was 0.0412 RU; with hFcgRIIaR [12], 0.0367 RU.
